Experimental data published in PMC8126939, “The TBC1D31/praja2 complex controls primary ciliogenesis through PKA‐directed OFD1 ubiquitylation” (The EMBO Journal, 2021).

B1: peptide of the C-terminus segment of TBC1D31 [human] / GST-praja2_(530–570) [modified: fluorescent dye on primary amines (NHS-ester labelling); fluorescent dye on primary amines (NHS-ester labelling)] [human] (parent complex)
chain 1: WDTTGQNLIKKVRNLRQRLTARARHRCQTPHLLAA
chain 2: LDGNNNLEDDSSVSEDLDVDWSLFDGFADGLGVAEAISYVD

Variants of: B1
Assay: microscale thermophoresis (MST); parent: 3.7e+04 nM

| Variant | Kd [µM] |
| --- | --- |
| chain 1 R13A, chain 1 R16A | ~65 |
